Reference: IntAct's records for PubMed 12717434

B1: Multiple coagulation factor deficiency protein 2 (Homo sapiens), Q8NI22 (parent)
chain: MTMRSLLRTPFLCGLLWAFCAPGARAEEPAASFSQPGSMGLDKNTVHDQEHIMEHLEGVINKPEAEMSPQELQLHYFKMHDYDGNNLLDGLELSTAITHVHKEEGSEQAPLMSEDELINIIDGVLRDDDKNNDGYIDYAEFAKSLQ
partner: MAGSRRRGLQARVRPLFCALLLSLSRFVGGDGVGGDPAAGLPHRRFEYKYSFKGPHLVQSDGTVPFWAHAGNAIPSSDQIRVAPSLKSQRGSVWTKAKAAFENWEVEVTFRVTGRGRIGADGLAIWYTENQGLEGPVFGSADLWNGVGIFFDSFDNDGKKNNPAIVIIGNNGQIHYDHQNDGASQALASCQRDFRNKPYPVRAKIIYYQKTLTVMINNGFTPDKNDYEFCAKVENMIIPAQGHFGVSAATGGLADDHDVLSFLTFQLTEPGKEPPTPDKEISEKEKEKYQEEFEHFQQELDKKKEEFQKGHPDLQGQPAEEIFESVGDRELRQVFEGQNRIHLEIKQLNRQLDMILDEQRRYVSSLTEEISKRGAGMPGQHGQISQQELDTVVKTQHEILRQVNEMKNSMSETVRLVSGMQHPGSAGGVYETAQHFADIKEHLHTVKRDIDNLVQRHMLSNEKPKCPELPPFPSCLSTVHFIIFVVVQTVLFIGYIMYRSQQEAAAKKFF

Variants of: B1
Conditions: with lman1_chlae LMAN1, Q9TU32

Variant	effect of a mutation on the interaction
MTMRSLLRTPFLCGLLWAFCAPGARAEEPAASFSQPGSMGLDKNTVHDQEHIMEHLEGVINKPEAEMSPQELQLHYFKMHDYDGNNLLDGLELSTAITHVHKEEGSEQAPLMSEDELINIIDGVLRDDDKNNDGYTDYAEFAKSLQ [I136T]	disrupting interaction strength
MTMRSLLRTPFLCGLLWAFCAPGARAEEPAASFSQPGSMGLDKNTVHDQEHIMEHLEGVINKPEAEMSPQELQLHYFKMHDYDGNNLLDGLELSTAITHVHKEEGSEQAPLMSEDELINIIDGVLRDDDKNNDGYVDYAEFAKSLQ [I136V]	decreasing interaction strength
MTMRSLLRTPFLCGLLWAFCAPGARAEEPAASFSQPGSMGLDKNTVHDQEHIMEHLEGVINKPEAEMSPQELQLHYFKMHDYDGNNLLDGLELSTAITHVHKEEGSEQAPLMSEDELINIIDGVLRDDEKNNDGYIDYAEFAKSLQ [D129E]	disrupting interaction strength
